Results: patent US20220162314A1 (ASHER BIOTHERAPEUTICS, published 2022)
Residue numbers refer to the chain shown, from its start. Blank lines part the entries; values can stand above or below the binder they belong to.

Experiments:
[1] = target: T1, CD8 on human CD8+ T cells (CD3+CD8a+CD8b+ cells of hPBMCs) (human, UniProt P01732 22-235; P10966 22-210); assay: flow cytometry on human PBMCs, CD8+ T cells (CD3+CD8a+CD8b+), anti-human Fc MFI
T1 construct: whole, on cells; also called CD8ab+ T cells
Description: (§1) Binding of CD8ab antibodies to T cells (FIG. 4) and NK cells (FIG. 5) in hPBMCs was detected by staining with anti-human Fc antibody conjugated to APC. Anti-hFc was used to measure the binding of CD8 antibodies containing hFc. Mean fluorescence intensity (MFI) of staining with anti-hFc is used to denote binding. Binding of anti-hFc was determined in CD3+CD8a+CD8b+ cells (CD8+ T cells) and CD3-CD56+CD8a+ cells (CD8+NK cells).
(§2) The binding of CD8ab antibodies on cells was determined by flow cytometry. Freshly isolated PBMCs were incubated with CD8ab antibodies for 2 hours at 4° C. Cells were then stained with antibodies against surface markers CD3 (UCHT1), CD4 (RPA-T4), CD8a (SK1), CD56 (HCD56), and anti-human Fc antibody (HP6017). Anti-human Fc antibody was used to measure the binding of CD8ab antibodies containing hFc. Stained cells were washed and analyzed by flow cytometry and mean fluorescence intensity (MFI) of staining with anti-hFc was used to denote binding.

[2] = target: T2, CD8aa on human CD8+ NK cells (CD3-CD56+CD8a+ cells of hPBMCs) (human, UniProt P01732 22-235); assay: flow cytometry on human PBMCs, CD8+ NK cells (CD3-CD56+CD8a+), anti-human Fc MFI
T2 construct: whole, on cells; also called CD8aa+ NK cells
Description: as §1, §2

[3] = target: T3, Recombinant human CD8ab protein (extracellular domains of CD8a and CD8b with leucine zippers and tags) (human, UniProt P01732 22-182; P10966 22-170); assay: ELISA: antigen coated on the plate, antibody titrated, anti-IgG (Fc)-HRP and TMB, A450
T3 construct: extracellular domain; Secreted from HEK293 cells; also called recombinant CD8ab; soluble CD8ab antigen; not shown: acidic leucine zipper; 8x Histidine tag; basic leucine zipper; Strep-tag II
Description: (§3) Binding specificity of the antibodies was determined by ELISA. […] of recombinant CD8ab, CD8a (Sino biological), CD8b (Sino biological) and ovalbumin (Sigma) or Erb2 (human epidermal growth factor receptor 2) (Sino biological) in PBS were coated onto the maxisorp plate overnight at 4° C. Ovalbumin or Erb2 was used as negative control. Plate was then blocked with casein blocking solution (Thermo Scientific) for 1 hr at room temperature. After blocking, plate was washed with wash buffer (PBS/0.05% Tween-20). Next, dilution of antibody from 30 nM to 0.0009 nM in PBS/0.5% BSA/0.05% Tween-20 was added onto the plate and incubated for 1-2 hr at room temperature. After incubation, plate was washed, and incubated with anti-human IgG (Fc specific)-HRP conjugate or anti-mouse IgG (Fc specific)-HRP conjugate (Jackson Immunoresearch) in PBS/0.5% BSA/0.05% Tween-20 for 1 hr. Binding was detected by adding TMB substrate (SeraCare) to the plate, followed by stopping solution of 0.1M HCl. Binding absorbance was read using GloMax® Discover Microplate Reader (Promega).

[4] = target: T4, Recombinant CD8a (Sino biological) (human, UniProt P01732 22-182); assay: as above
T4 construct: also called CD8a alone
Description: as §3

[5] = target: T5, Recombinant CD8b (Sino biological) (human, UniProt P10966 22-170, limits assumed); assay: as above
T5 construct: also called CD8b alone
Description: as §3

[6] = target: T3, Recombinant human CD8ab protein …; assay: SPR (Biacore T200, 37 C), antibody captured by anti-human IgG Fc, soluble CD8ab as analyte, 1:1 model
Description: (§4) Recombinant human CD8ab protein was generated. […] Antibodies were first captured on an anti-hJgG-Fc CM5 or CM4 surface prepared using the Human Antibody Capture Kit (Cytiva). […] Dissociation was monitored for 5-10 minutes, and the anti-hJgG-Fc surface was regenerated with 3M MgCl2 before recapturing mAb in each subsequent cycle. Binding data were analyzed by Biacore T200 Evaluation Software version 3.2 using a 1:1 binding model.

[7] = target: T3, Recombinant human CD8ab protein …; assay: SPR as in Example 1 (antibody captured, soluble CD8ab as analyte)
Description: as §4

[8] = target: T1, CD8 on human CD8+ T cells …; assay: flow cytometry, CD8+ T cells, anti-human Fc MFI
Description: as §2

[9] = target: T5, Recombinant CD8b (Sino biological); assay: ELISA, coated recombinant CD8b
Description: as §3

[10] = target: T4, Recombinant CD8a (Sino biological); assay: ELISA, coated recombinant CD8a, antibody 30 nM to 0.0009 nM
Description: as §3

[11] = target: T3, Recombinant human CD8ab protein …; assay: SPR as in Example 1 (antibody captured, soluble CD8ab as analyte), steady state fit
Description: as §4

T2 sequence (P01732 22-235): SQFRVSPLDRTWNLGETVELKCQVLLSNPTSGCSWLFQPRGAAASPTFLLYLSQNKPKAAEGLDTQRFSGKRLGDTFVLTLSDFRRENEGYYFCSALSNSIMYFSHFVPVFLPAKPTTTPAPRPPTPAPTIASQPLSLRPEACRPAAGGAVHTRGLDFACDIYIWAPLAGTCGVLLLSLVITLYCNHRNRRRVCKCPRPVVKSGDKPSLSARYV
T1 sequence (P01732 22-235, chain 1 of 2): as the sequence (P01732 22-235) above
T1 sequence (P10966 22-210, chain 2 of 2): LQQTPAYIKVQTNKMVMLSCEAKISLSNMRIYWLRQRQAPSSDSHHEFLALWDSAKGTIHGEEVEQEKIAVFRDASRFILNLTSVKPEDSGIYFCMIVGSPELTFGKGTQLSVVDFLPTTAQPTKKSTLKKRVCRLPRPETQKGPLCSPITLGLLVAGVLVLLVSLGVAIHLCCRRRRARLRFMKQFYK
T3 sequence (P01732 22-182, chain 1 of 2): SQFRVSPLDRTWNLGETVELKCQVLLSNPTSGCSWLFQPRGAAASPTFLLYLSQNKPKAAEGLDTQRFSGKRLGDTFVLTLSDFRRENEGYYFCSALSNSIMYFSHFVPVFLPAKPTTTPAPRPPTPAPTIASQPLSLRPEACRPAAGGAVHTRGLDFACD
T3 sequence (P10966 22-170, chain 2 of 2): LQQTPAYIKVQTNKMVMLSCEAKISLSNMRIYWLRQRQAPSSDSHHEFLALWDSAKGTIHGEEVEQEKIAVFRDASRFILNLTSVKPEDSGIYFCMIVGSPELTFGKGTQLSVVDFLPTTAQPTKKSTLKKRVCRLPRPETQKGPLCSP
T4 sequence (P01732 22-182 limits assumed): as the sequence (P01732 22-182, chain 1 of 2) above
T5 sequence (P10966 22-170 limits assumed): as the sequence (P10966 22-170, chain 2 of 2) above

B1: xhCD8v7 (antibody, human IgG1, V domains shown)
VH: EVQLVESGGGLVQPGRSLRLSCAASGFTFDDYAMHWVRQAPGKGLEWVAVISYDGSNKYYADSVKGRFTISRDNSKNTLYLQMNSLRAEDTAVYYCAKDRIGWYDYDAFDIWGQGTMVTVSS
VL: EIVLTQSPATLSVTPGEGATLSCRASHSVGSNLAWYQQKPGQAPRLLIYDASNRATGIPARFSGSGSGTDFTLTISSLEPEDLAVYYCQQRSNWPPTFGQGTRLEIK
EC50 (read off the curve) [1]: ~0.05 nM | binding result [2]: no binding (tested: 100 nM) | EC50 (read off the curve) [3]: ~0.09 nM | binding result [4]: no binding (tested: 30 nM) | binding result [5]: no binding (tested: 30 nM) | Kd [6]: 1.08 nM | koff [6]: 0.000922 s⁻¹ | kon [6]: 855000 M⁻¹ s⁻¹

B2: xhCD8v10 (antibody, human IgG1, V domains shown)
VH: EVQLVESGGGLVQPGGSLRLSCAASGFTFSSYAMSWVRQAPGKGLEWVSDITYAGGSTAYADSVKGRFTISRDNAKNSLYLQMNSLRAEDTAVYYCARSNAYAWDDALDIWGQGTMVTVSS
VL: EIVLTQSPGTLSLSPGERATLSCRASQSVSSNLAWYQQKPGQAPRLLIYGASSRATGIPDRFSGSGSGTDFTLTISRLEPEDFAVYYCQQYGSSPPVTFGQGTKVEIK
notes: Improved version based on xhCD8v6
Kd [7]: 36.4 nM | koff [7]: 0.00386 s⁻¹ | kon [7]: 106000 M⁻¹ s⁻¹

B4: xhCD8v14 (antibody, human IgG1, V domains shown)
VH: B2 VH with T52S
VL: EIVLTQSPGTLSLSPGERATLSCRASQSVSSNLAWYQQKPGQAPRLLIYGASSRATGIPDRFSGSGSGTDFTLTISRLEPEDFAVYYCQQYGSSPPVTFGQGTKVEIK
notes: as for B2
Kd [7]: 52.9 nM | koff [7]: 0.00855 s⁻¹ | kon [7]: 162000 M⁻¹ s⁻¹

B7: xhCD8v6 (antibody, human IgG1, V domains shown)
VH: EVQLVESGGGAVRPGGSLRLSCAASGFTFDDYGMSWVRQAPGKGLEWVSDINWSGEITAYADSVKGRFTISRDNAKNSLYLQMNSLRAEDTAVYYCARSNSYRWDDALDIWGQGTMVTVSS
VL: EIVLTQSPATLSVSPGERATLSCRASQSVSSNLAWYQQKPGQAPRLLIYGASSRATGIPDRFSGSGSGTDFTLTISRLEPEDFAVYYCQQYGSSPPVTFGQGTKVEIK
notes: also called xCD8v6
EC50 (read off the curve) [1]: ~0.3 nM | binding result [2]: no binding (tested: 100 nM) | EC50 (read off the curve) [3]: ~0.07 nM | binding result [4]: no binding (tested: 30 nM) | binding result [5]: no binding (tested: 30 nM) | Kd [6]: 0.35 nM | koff [6]: 0.000571 s⁻¹ | kon [6]: 1.62e+06 M⁻¹ s⁻¹

B8: xhCD8v13 (antibody, human IgG1, V domains shown)
VH: QVQLVQSGAEVKKPGSSVKVSCKASGGTFSSYAISWVRQAPGQGLEWMGGIIPGYATANYAQKFQGRVTITADESTSTAYMELSSLRSEDTAVYYCARDAAGIRLFADWGQGTLVTVSS
VL: DIQMTQSPSSLSASVGDRVTITCRASQEIYGALNWYQQKPGKAPKLLIYGATNLQSGVPSRFSGSGSGTDFTLTISSLQPEDFATYYCQSTYDAPWTFGGGTKVEIK
notes: Improved version based on xhCD8v2
binding result [9]: binds | binding result [10]: no binding (tested: 30 nM) | Kd [7]: 81.8 nM | koff [7]: 0.0301 s⁻¹ | kon [7]: 368000 M⁻¹ s⁻¹

B9: xhCD8v4 (antibody, human IgG1, V domains shown)
VH: B8 VH with G27Y, S30T, S31K, Y55H, T57K, A100G, A101L
VL: B8 VL with E28K, S90N, A94T
binding result [9]: binds | binding result [10]: no binding (tested: 30 nM) | Kd [6]: 137 nM | koff [6]: 0.0493 s⁻¹ | kon [6]: 360000 M⁻¹ s⁻¹

B10: xhCD8v9 (antibody, human IgG1, V domains shown)
VH: B8 VH with Y55A
VL: B8 VL
notes: as for B8
binding result [9]: binds | binding result [10]: no binding (tested: 30 nM) | Kd [7]: 121 nM | koff [7]: 0.0273 s⁻¹ | kon [7]: 225000 M⁻¹ s⁻¹

B14: xhCD8v12 (antibody, human IgG1, V domains shown)
VH: B8 VH
VL: B8 VL with E28S, T52S, D93T
notes: as for B8
Kd [7]: 105 nM | koff [7]: 0.0271 s⁻¹ | kon [7]: 259000 M⁻¹ s⁻¹ | EC50 (read off the curve) [3]: ~0.02 nM | binding result [4]: no binding (tested: 30 nM) | EC50 (read off the curve) [5]: ~0.05 nM

The next lines start with the values.

Kd [7]: 37.8 nM | koff [7]: 0.00361 s⁻¹ | kon [7]: 95500 M⁻¹ s⁻¹
B3: xhCD8v11 (antibody, human IgG1, V domains shown)
VH: B2 VH with M116L
VL: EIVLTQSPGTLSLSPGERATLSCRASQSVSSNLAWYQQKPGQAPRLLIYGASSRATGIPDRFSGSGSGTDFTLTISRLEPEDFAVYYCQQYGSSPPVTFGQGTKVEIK
notes: as for B2

Kd [7]: 94.3 nM | koff [7]: 0.0175 s⁻¹ | kon [7]: 186000 M⁻¹ s⁻¹
B5: xhCD8v15 (antibody, human IgG1, V domains shown)
VH: B2 VH with T52S, M116L
VL: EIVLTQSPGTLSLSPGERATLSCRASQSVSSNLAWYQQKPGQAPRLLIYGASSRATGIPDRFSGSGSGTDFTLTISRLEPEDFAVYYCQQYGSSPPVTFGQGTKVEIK
notes: as for B2

EC50 (read off the curve) [8]: ~0.3 nM | EC50 (read off the curve) [1]: ~0.3 nM | binding result [2]: no binding (tested: 100 nM) | EC50 (read off the curve) [3]: ~0.05 nM | binding result [4]: no binding (tested: 30 nM) | EC50 (read off the curve) [5]: ~0.09 nM | Kd [6]: 19.8 nM | koff [6]: 0.0183 s⁻¹ | kon [6]: 922000 M⁻¹ s⁻¹
B6: xhCD8v1 (antibody, V domains shown)
VH: QVHLQQSGPELVKPGASVKMSCKTSGYTFTKYTMHWVKQGHEESLEWIGHFNPNNDETKYNQKFTGKATLTVDKSSTTAYMELRSLTSDDSALYYCARDGLGLRLFADWGQGTLITVSA
VL: DIQMTQSPASLSASVGETVTITCGASENIYGALNWYQRKQGKSPQLLIFGATNLADGVSSRFSGSGSDRQYSLKISSLHPDDVATYYCQNILDTPWTFGGGTKLEIK
notes: Mouse monoclonal antibody against CD8b; also called mouse monoclonal antibody xhCD8v1; xCD8v1

binding result [9]: binds | binding result [10]: no binding (tested: 30 nM) | Kd [6]: 72.3 nM | koff [6]: 0.0379 s⁻¹ | kon [6]: 524000 M⁻¹ s⁻¹
B11: xhCD8v3 (antibody, human IgG1, V domains shown)
VH: B8 VH with G27S, T28R, S30Y, S31K, Y32F, Y55H, T57K, A100G, A101L
VL: B8 VL with S90D, T91I

EC50 (read off the curve) [3]: ~0.03 nM | binding result [4]: no binding (tested: 30 nM) | EC50 (read off the curve) [5]: ~0.06 nM | Kd [6]: 41.6 nM | koff [6]: 0.02 s⁻¹ | kon [6]: 483000 M⁻¹ s⁻¹
B12: xhCD8v2 (antibody, human IgG1, V domains shown)
VH: B8 VH with G27Y, T28R, S30H, S31N, Y32F, Y55H, T57K, A100G, A101L
VL: B8 VL with S90D, T91I

binding result [9]: binds | binding result [10]: no binding (tested: 30 nM) | Kd [6]: 117 nM | koff [6]: 0.0419 s⁻¹ | kon [6]: 357000 M⁻¹ s⁻¹
B13: xhCD8v5 (antibody, human IgG1, V domains shown)
VH: B8 VH with G27S, T28G, S30R, S31G, Y32H, Y55H, T57K, A100G, A101L
VL: B8 VL with E28K, S90N, A94T

Kd [11]: 236 nM
B15: xhCD8v8 (antibody, human IgG1, V domains shown)
VH: QVQLQQSGAELVRPGSSVKISCKASGYAFSSYWMNWVKQRPGQGLEWIGQIYPGDGDTNYNGKFKGKATLTADKSSSTAYMQLSSLTSEDSAVYFCARSGAAFSSYYAMDYWGQGTSVTVSS
VL: DIQMTQSPASLSVSVGETVTITCRASENIYSNLAWYQQKQGKSPQLLVYAATNLADGVPSRFSGSGSGTQYSLKINSLQSEDFGSYYCQHFWGTPWTFGGGTKLEIK
notes: also called xCD8v8
